From US6573364 (CURAGEN, dated 2003)

T1: HPS protein fragment 1272-2306 fused to the Gal4 activator domain (reverse screen) (yeast; human, UniProt Q92902 356-700)
T1 construct: Residue limits are derived from the printed nucleotide limits; also called HPS protein domain comprised of nucleotides 1272-2306; HPS U65676 1272-2306; not shown: order of the two pie
T1 sequence: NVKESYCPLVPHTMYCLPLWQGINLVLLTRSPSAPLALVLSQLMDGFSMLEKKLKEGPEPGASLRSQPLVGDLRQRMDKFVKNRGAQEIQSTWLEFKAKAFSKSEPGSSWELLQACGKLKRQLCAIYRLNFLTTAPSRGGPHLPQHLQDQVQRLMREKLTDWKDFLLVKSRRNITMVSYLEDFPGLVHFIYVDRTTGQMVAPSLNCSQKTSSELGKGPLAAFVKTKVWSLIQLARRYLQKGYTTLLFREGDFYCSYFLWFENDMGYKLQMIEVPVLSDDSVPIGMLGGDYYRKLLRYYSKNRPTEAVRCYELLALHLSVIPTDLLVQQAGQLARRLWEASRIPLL

B1: HPIP1 (prey sequence of 619 nucleotides, interaction starting at nucleotide 1) fused to the Gal4 activator domain (other, not shown: large carriers)
chain: GTRLSINPNNHSWLIIQADIYFATNQYSAALHYYLQAGAVCSDFFNKAVPPDVYTDQVIKRMIKCCSLLNCHTQVAILCQFLREIDYKTAFKSLQEQNSHDAMDSYYDYIWDVTILEYLTYLHHKRGETDKRQIAIKAIGQTELNASNPEEVLQLAAQRRKKKFLQAMAKLYF
notes: Prey of the forward screen, 3 identical clones from a human fetal brain cDNA library; also called cg49368.b1; cg49367.h11
B2: HPS protein fragment 210-1292 fused to the Gal4 activator domain (reverse screen) (other)
chain: KCVLVATEGAEVLFYWTDQEFEESLRLKFGQSENEEEELPALEDQLSTLLAPVIISSMTMLEKLSDTYTCFSTENGNFLYVLHLFGECLFIAINGDHTESEGDLRRKLYVLKYLFEVHFGLVTVDGHLIRKELRPPDLAQRVQLWEHFQSLLWTYSRLREQEQCFAVEALERLIHPQLCELCIEALERHVIQAVNTSPERGGEEALHAFLLVHSKLLAFYSSHSASSLRPADLLALILLVQDLYPSESTAEDDIQPSPRRARSSQNIPVQQAWSPHSTGPTGGSSAETETDSFSLPEEYFTPAPSPGDQSSGSTIWLEGGTPPMDALQIAEDTLQTLVPHCPVPSGPRRIFLDANVKESYC
notes: Residue limits are derived from the printed nucleotide limits; also called HPS protein domain 210-1292; HPS U65676 210-1292; not shown: order of the two pie
B3: 14-3-3 protein eta isoform, prey insert starting at nucleotide 764 of GenBank X80536, fused to the Gal4 DNA binding domain (other, yeast)
chain: MKLLSSIEQACDICRLKKLKCSKEKPKCAKCLKNNWECRYSPKTKRSPLTRAHLTEVESRLERLEQLFLLIFPREDLDMILKMDSLQDIKALLTGLFVQDNVNKDAVTDRLASVETDMPLTLRQHRISATSSSEESSNKGQRQLTVSQACLLAKQAFDDAIAELDTLNEDSYKDSTLIMQLLRDNLTLWTSDQQDEEAGEGN
notes: Prey from a human fetal brain cDNA library, reverse screens; Residue limits derived from the printed nucleotide start; also called 14-3-3 eta
B4: HPS protein fragment 1272-2357 fused to the Gal4 activator domain (reverse screen) (other)
chain: T1 sequence
notes: Codes for the same HPS residues as the 1272-2306 construct but is a separate construct; also called HPS protein domain 1272-2357; HPS U65676 1272-2357; not shown: order of the two pie
B5: BMK1 alpha kinase, prey insert starting at nucleotide 2431 of GenBank U29725, fused to the Gal4 DNA binding domain (other, yeast)
chain: MKLLSSIEQACDICRLKKLKCSKEKPKCAKCLKNNWECRYSPKTKRSPLTRAHLTEVESRLERLEQLFLLIFPREDLDMILKMDSLQDIKALLTGLFVQDNVNKDAVTDRLASVETDMPLTLRQHRISATSSSEESSNKGQRQLTVSGAGYGVGFDLEEFLNQSFDMGVADGPQDGQADSASLSASLLADWLEGHGMNPADIESLQREIQMDSPMLLADLPDLQDP
notes: Prey of the reverse screen, 2 isolates; Residue limits derived from the printed nucleotide start

Legend:
[1] = molecular target: T2, HPS protein bait fragment 210-1292 fused to the Gal4 DNA binding domain (forward screen) (yeast; human, UniProt P04386 1-147); test: yeast two-hybrid, forward screen; listed in Table I as an interaction with HPS 210-1292, 3 isolates
T2 construct: Residue limits are derived from the printed nucleotide limits; also called Hermansky-Pudlak Syndrome protein; HPS U65676 210-1292
Protocol: (§1) The two mating strains ([…]) were then diluted in YAPD media (see Id.) filtered onto nitrocellulose membranes and incubated at 30° C. for 6–8 hours. […] The mating products were plated on synthetic complete (SC) media (see Kaiser, Michaelis & Mitchell, Eds., 1994. *Methods in Yeast Genetics*, 1994 *Ed.* (Cold Spring Harbor Laboratory Press, New York, N.Y.) lacking adenine and lysine (to select for successful mating), leucine and tryptophan (to select for expression of genes encoded by both the bait and prey plasmids), and uracil and histidine (to select for protein interactions). This medium is hereinafter referred to as SCS medium, for SC Selective medium.
(§2) Selected clones were subsequently examined for expression of β-galactosidase to confirm the formation of an HPS protein•HPS protein-IP interaction. […]
(§3) The cells contained within colonies which were "positive" for protein interaction contained a mixture of DNA-binding and activation-domain plasmids. […] Approximately 10 μl of each selected isolate was lysed, the inserts within the pAD-GAL4 or pGAD-GH for the activation domain plasmids and pBD-GAL4 or pGBT9BS plasmids were PCR amplified using primers specific for the flanking sequences of each vector and approximately 300 nucleotides (of what would be the protein's amino-terminus following translation) was determined using an ABI 377 sequenator. […]

[2] = molecular target: T3, Atrophin-1, prey insert starting at nucleotide 2649 of GenBank U23851, fused to the Gal4 DNA binding domain (yeast; human, UniProt P04386 1-147); test: yeast two-hybrid, reverse screen; listed in Table I as an interaction with HPS 210-1292, 1 isolate
T3 construct: Prey of the reverse screen; Residue limits derived from the printed nucleotide start; also called Atrophin I; atrophin-I
Protocol: as §1, §2, §3

[3] = molecular target: B4; test: yeast two-hybrid, reverse screen; listed in Table I as an interaction with HPS 1272-2357, 1 isolate
Protocol: as §1, §2, §3

[4] = molecular target: T1, HPS protein fragment 1272-2306 fused to …; test: yeast two-hybrid, reverse screen; listed in Table I as an interaction with HPS 1272-2306, 1 isolate
Protocol: as §1, §2, §3

[5] = molecular target: T4, CDK2, prey insert starting at nucleotide 4 of GenBank X61622, fused to the Gal4 DNA binding domain (yeast; human, UniProt P04386 1-147); test: yeast two-hybrid, reverse screen; listed in Table I as an interaction with HPS 1272-2357, 1 isolate
T4 construct: Prey of the reverse screen; Residue limits derived from the printed nucleotide start; also called CDK2 X61622 4-*
Protocol: as §1, §2, §3

[6] = molecular target: B2; test: yeast two-hybrid, reverse screen; listed in Table I as an interaction with HPS 210-1292, 2 isolates
Protocol: as §1, §2, §3

**Q.** Does B1 bind [1]?
**A.** binds

**Q.** Does B2 bind [2]?
**A.** binds

**Q.** Which results are given for B3?
**A.** binding result [3]: binds; binding result [4]: binds

**Q.** Does B4 bind [5]?
**A.** binds

**Q.** Does B5 bind [6]?
**A.** binds
